Assay results from patent US5955575A, “Antagonists of G-protein-coupled receptor” (Hopital Sainte-Justine, priority 1997, dated 1999).
No end group written: not given here.

Key:
Type in all cases: cell-based
FP receptor [1] = biological target: T1, FP receptor (Homo sapiens, UniProt P43088); assay: Phosphoinositide hydrolysis in permeabilized A549 cells loaded with synthetic peptides, stimulated with PGF2α; conditions: dose-response in permeabilized A549 cells stimulated with PGF2α; FIG. 2B; read-out: half maximal inhibitory concentration
T1 construct: endogenous in cells; host or cells: A549 lung carcinoma cells (ATCC CCL185)
T1 sequence (P43088 whole entry): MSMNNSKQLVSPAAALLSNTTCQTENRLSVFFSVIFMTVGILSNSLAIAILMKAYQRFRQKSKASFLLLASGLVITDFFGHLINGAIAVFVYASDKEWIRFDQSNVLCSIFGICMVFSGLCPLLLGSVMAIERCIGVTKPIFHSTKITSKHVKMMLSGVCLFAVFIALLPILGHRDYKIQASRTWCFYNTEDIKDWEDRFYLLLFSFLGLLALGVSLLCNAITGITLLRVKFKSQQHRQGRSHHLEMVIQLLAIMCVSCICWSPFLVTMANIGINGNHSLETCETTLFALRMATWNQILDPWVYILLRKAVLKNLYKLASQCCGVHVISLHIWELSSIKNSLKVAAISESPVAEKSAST

FP receptor [2] = biological target: T1, FP receptor; assay: Phosphoinositide hydrolysis in A549 cells stably expressing the peptides, stimulated with PGF2α; conditions: peptide stably expressed intracellularly in A549 cells; 1 μM PGF2α for 30 min; n=3; FIG. 1A
Method: (§1) A549 lung carcinoma cells (ATCC Accession No.: CCL185, American Type Culture Collection, Rockville, Md. 20852) were cultured in Dulbecco's modified Eagles medium (DMEM) with 10% fetal bovine serum (FBS) and antibiotics, penicillin (10 U/ml) and streptomycin (10 μg/ml) in a humidified atmosphere containing 5% CO2 at 37° C. The cells were trypsinized and plated in 6-well tissue culture dishes at 2×10^5 cells/well, a day before commencing the experiments.
(§2) The expression plasmids carrying the third (PCP-1) and the fourth (PCP-2) intracellular domains were introduced into A549 cells using Transfectamine lipid (GIBCO Life Technologies, Burlington, ON). Three (3) micrograms of DNA and 16 μg of lipid were mixed in 200 μl of water and incubated at room temperature for 45 min. Then, the lipid-DNA complexes were diluted with 0.8 ml of Opti-MEM™ (GIBCO Life Technologies, Burlington, ON). The cells were washed twice with Hank's Balanced Salt Solution and incubated with lipid-DNA complexes for 6 hours. An equal volume of DMEM with 20% FBS was added and the cells were kept in the incubator overnight. On the next day, the medium was replaced with DMEM containing 10% FBS and antibiotics and incubated for another 24 hours. […]

EP1 = biological target: T2, EP1 (Homo sapiens, UniProt P34995); assay: Phosphoinositide hydrolysis in A549 cells stably expressing the peptides, stimulated with PGE2 (specificity); conditions: peptide stably expressed intracellularly in A549 cells; 1 μM PGE2 for 30 min; FIG. 1B
T2 construct: a related prostaglandin receptor expressed in these cells; endogenous in cells; host or cells: A549 lung carcinoma cells (ATCC CCL185)
T2 sequence (P34995 1-402): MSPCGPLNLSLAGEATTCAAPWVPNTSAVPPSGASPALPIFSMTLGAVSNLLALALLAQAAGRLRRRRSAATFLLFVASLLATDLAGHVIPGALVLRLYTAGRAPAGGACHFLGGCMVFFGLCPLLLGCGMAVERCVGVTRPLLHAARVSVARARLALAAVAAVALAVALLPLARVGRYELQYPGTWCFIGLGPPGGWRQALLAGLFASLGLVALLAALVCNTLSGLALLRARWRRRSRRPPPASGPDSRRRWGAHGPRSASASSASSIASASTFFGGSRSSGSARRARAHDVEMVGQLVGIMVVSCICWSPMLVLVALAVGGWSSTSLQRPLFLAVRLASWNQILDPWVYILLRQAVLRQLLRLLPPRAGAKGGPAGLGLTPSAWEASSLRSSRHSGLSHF
Method: as §1, §2

| Substance | IC50 (FP receptor [1]) [µM] | ligand-stimulated phosphoinositide hydrolysis (fold stimulation over unstimulated controls) (FP receptor [2]) | inositol phosphate generation by EP1 receptor (EP1) |
| --- | --- | --- | --- |
| KDTILQLNLKEYNLV-NH2 [PCP-4, KDTILQLNLK EYNLV-NH2] | 50 | – | – |
| RKAVLKNLYKLASQCCGVHVISLHIWELSSIKNSLKVAAISESPVAEKSAST (RKAVLKNLYKLASQCCGVHVISLHIWELSSIKNSLKVAAISESPVAEKSAST) [PCP-2] | – | inhibited | did not affect |
| RVKFKSQQHR QGRSHHLEM (RVKFKSQQHRQGRSHHLEM) [PCP-1] | – | inhibited | did not affect |
